Patent US20210246166A1 (Bayer, published 2021)
Numbered stars: 1 amine (or outer) side, 2 acyl side, 3 side chain; on linkers, the order of the positions; unused ones are H or OH. Bridge positions count the residues as written; N and C are the ends. Square brackets hold non-standard residues; d marks the D form. Primed or numbered codes have the meaning given here. Ends that are not written are not given here. TTDS(3) = 1,13-Diamino-4,7,10-trioxatridecan-succinamic acid; Pro(3S,4R-methano) = O=C(O)[C@H]1NC[C@@H]2C[C@@H]21; cPrCO(1-aminomethyl) = O=C(C1(CN[*:1])CC1)[*:2]; Oic = O=C(O)[C@@H]1C[C@@H]2CCCC[C@@H]2N1; PEG6 = NCCOCCOCCOCCOCCOCCOCCC(=O)O; tBuAla = CC(C)(C)C[C@H](N)C(=O)O; Pen = CC(C)(S)[C@H](N)C(=O)O; NMeC = CN[C@@H](CS)C(=O)O; PEG3 = NCCOCCOCCOCCC(=O)O; Nle = CCCC[C@H](N)C(=O)O; Orn = NCCC[C@H](N)C(=O)O; Nva = CCC[C@H](N)C(=O)O; Sar = CNCC(=O)O

Assays:
[1] = target: recombinant human MASP2 active protease (amino acids 297-686, C-terminal His Tag) (human, UniProt O00187 297-686); assay: cell-based or functional assay
[2] = target: T1, recombinant human MASP1 active protease (amino acids 297-699, C-terminal His Tag) (human, UniProt P48740 297-699); assay: cell-based or functional assay
T1 sequence: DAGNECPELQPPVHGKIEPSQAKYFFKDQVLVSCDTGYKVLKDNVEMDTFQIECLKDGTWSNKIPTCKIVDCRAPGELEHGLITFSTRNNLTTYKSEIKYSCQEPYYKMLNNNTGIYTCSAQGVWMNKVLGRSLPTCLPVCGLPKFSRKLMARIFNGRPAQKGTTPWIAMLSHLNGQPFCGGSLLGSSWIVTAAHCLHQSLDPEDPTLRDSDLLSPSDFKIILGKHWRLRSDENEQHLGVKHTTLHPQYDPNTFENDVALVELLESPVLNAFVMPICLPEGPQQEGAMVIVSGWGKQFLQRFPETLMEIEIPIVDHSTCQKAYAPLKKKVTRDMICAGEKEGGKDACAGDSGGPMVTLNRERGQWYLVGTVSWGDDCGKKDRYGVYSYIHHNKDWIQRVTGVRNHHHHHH

recombinant human MASP2 active protease (amino acids 297-686, C-terminal His Tag), sequence (O00187 other isoform, or with tags, fused parts or gaps limits assumed): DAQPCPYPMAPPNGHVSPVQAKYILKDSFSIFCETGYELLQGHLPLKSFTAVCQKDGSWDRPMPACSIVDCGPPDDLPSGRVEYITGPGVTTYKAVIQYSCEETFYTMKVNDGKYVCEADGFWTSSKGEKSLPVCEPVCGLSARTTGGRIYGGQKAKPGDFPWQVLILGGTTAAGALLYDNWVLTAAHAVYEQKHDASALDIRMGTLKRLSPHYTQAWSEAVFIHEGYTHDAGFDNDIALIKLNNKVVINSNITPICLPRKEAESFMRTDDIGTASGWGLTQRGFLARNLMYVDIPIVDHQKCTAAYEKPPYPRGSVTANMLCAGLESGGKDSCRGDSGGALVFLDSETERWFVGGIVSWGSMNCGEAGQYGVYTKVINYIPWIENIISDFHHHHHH

B1: aIC+SRSLP-(Oic)-I-(Pen)+I-OH (peptide)
peptide: [dA]ICSRSLP[Oic]I[Pen]I-OH
modifications: disulfide 3-11; N-terminus assumed
SMILES: CC[C@H](C)[C@H](NC(=O)[C@H]1NC(=O)[C@H]([C@@H](C)CC)NC(=O)[C@@H]2C[C@@H]3CCCC[C@@H]3N2C(=O)[C@@H]2CCCN2C(=O)[C@H](CC(C)C)NC(=O)[C@H](CO)NC(=O)[C@H](CCCNC(=N)N)NC(=O)[C@H](CO)NC(=O)[C@@H](NC(=O)[C@@H](NC(=O)[C@@H](C)N)[C@@H](C)CC)CSSC1(C)C)C(=O)O
- human MASP2 IC50 [1]: 92 nM
- human MASP1 IC50 [2]: 2.6 nM

B2: AIC+SRS-((tBu)A)-PPI-(Pen)+IPD-NH2 (peptide)
peptide: AICSRS[tBuAla]PPI[Pen]IPD-NH2
modifications: disulfide 3-11; N-terminus assumed
SMILES: CC[C@H](C)[C@H](NC(=O)[C@H](C)N)C(=O)N[C@H]1CSSC(C)(C)[C@@H](C(=O)N[C@H](C(=O)N2CCC[C@H]2C(=O)N[C@@H](CC(=O)O)C(N)=O)[C@@H](C)CC)NC(=O)[C@H]([C@@H](C)CC)NC(=O)[C@@H]2CCCN2C(=O)[C@@H]2CCCN2C(=O)[C@H](CC(C)(C)C)NC(=O)[C@H](CO)NC(=O)[C@H](CCCNC(=N)N)NC(=O)[C@H](CO)NC1=O
- human MASP2 IC50 [1]: 83 nM
- human MASP1 IC50 [2]: 2.6 nM

B3: ((N-Me)G)-IC+SRSL-((1S,2S,5R)-3-azabicyclo[3.1.0]hexane-2-carboxylic acid)-PI-(Pen)+IPE-NH2 (peptide)
peptide: [Sar]ICSRSL[Pro(3S,4R-methano)]PI[Pen]IPE-NH2
modifications: disulfide 3-11; N-terminus assumed
SMILES: CC[C@H](C)[C@H](NC(=O)CNC)C(=O)N[C@H]1CSSC(C)(C)[C@@H](C(=O)N[C@H](C(=O)N2CCC[C@H]2C(=O)N[C@@H](CCC(=O)O)C(N)=O)[C@@H](C)CC)NC(=O)[C@H]([C@@H](C)CC)NC(=O)[C@@H]2CCCN2C(=O)[C@@H]2[C@H]3C[C@H]3CN2C(=O)[C@H](CC(C)C)NC(=O)[C@H](CO)NC(=O)[C@H](CCCNC(=N)N)NC(=O)[C@H](CO)NC1=O
- human MASP2 IC50 [1]: 70 nM
- human MASP1 IC50 [2]: 2.5 nM

Binder: AICSRS[tBuAla]P[Oic]ICIPD-NH2 (disulfide 3-11; also: HCl salt) [AIC+SRS-((tBu)A)-P-(Oic)-IC+IPD-NH2 (HCl salt)]
- human MASP2 IC50 [1]: 190 nM
- human MASP1 IC50 [2]: 2.5 nM

B4: ((N-Me)G)-IC+SRSLP-(Oic)-I-(Pen)+IP-(PEG2(13 atoms))-NH2 (peptide)
peptide: [Sar]ICSRSLP[Oic]I[Pen]IP[PEG3]-NH2
modifications: disulfide 3-11; N-terminus assumed
SMILES: CC[C@H](C)[C@H](NC(=O)CNC)C(=O)N[C@H]1CSSC(C)(C)[C@@H](C(=O)N[C@H](C(=O)N2CCC[C@H]2C(=O)NCCOCCOCCOCCC(N)=O)[C@@H](C)CC)NC(=O)[C@H]([C@@H](C)CC)NC(=O)[C@@H]2C[C@@H]3CCCC[C@@H]3N2C(=O)[C@@H]2CCCN2C(=O)[C@H](CC(C)C)NC(=O)[C@H](CO)NC(=O)[C@H](CCCNC(=N)N)NC(=O)[C@H](CO)NC1=O
- human MASP2 IC50 [1]: 23 nM
- human MASP1 IC50 [2]: 1.1 nM

B5: AIC+SRS-((tBu)A)-PPI-((N-Me)C)+IPD-OH (peptide)
peptide: AICSRS[tBuAla]PPI[NMeC]IPD-OH
modifications: disulfide 3-11; N-terminus assumed
SMILES: CC[C@H](C)[C@H](NC(=O)[C@H](C)N)C(=O)N[C@H]1CSSC[C@@H](C(=O)N[C@H](C(=O)N2CCC[C@H]2C(=O)N[C@@H](CC(=O)O)C(=O)O)[C@@H](C)CC)N(C)C(=O)[C@H]([C@@H](C)CC)NC(=O)[C@@H]2CCCN2C(=O)[C@@H]2CCCN2C(=O)[C@H](CC(C)(C)C)NC(=O)[C@H](CO)NC(=O)[C@H](CCCNC(=N)N)NC(=O)[C@H](CO)NC1=O
- human MASP2 IC50 [1]: 185 nM
- human MASP1 IC50 [2]: 2.45 nM

B6: (Nva)-IC+SRS-((tBu)A)-PPI-(((N-Me)C))+I-NH2 (peptide)
peptide: [Nva]ICSRS[tBuAla]PPI[NMeC]I-NH2
modifications: disulfide 3-11; N-terminus assumed
SMILES: CCC[C@H](N)C(=O)N[C@H](C(=O)N[C@H]1CSSC[C@@H](C(=O)N[C@H](C(N)=O)[C@@H](C)CC)N(C)C(=O)[C@H]([C@@H](C)CC)NC(=O)[C@@H]2CCCN2C(=O)[C@@H]2CCCN2C(=O)[C@H](CC(C)(C)C)NC(=O)[C@H](CO)NC(=O)[C@H](CCCNC(=N)N)NC(=O)[C@H](CO)NC1=O)[C@@H](C)CC
- human MASP2 IC50 [1]: 50 nM
- human MASP1 IC50 [2]: 1.1 nM

B7: (ACMP)-IC+SRS-((tBu)A)-PPI-((N-Me)C)+I-NH2 (peptide)
peptide: [cPrCO(1-aminomethyl)]ICSRS[tBuAla]PPI[NMeC]I-NH2
modifications: disulfide 3-11; N-terminus assumed
SMILES: CC[C@H](C)[C@H](NC(=O)[C@@H]1CSSC[C@H](NC(=O)[C@@H](NC(=O)C2(CN)CC2)[C@@H](C)CC)C(=O)N[C@@H](CO)C(=O)N[C@@H](CCCNC(=N)N)C(=O)N[C@@H](CO)C(=O)N[C@@H](CC(C)(C)C)C(=O)N2CCC[C@H]2C(=O)N2CCC[C@H]2C(=O)N[C@@H]([C@@H](C)CC)C(=O)N1C)C(N)=O
- human MASP2 IC50 [1]: 360 nM
- human MASP1 IC50 [2]: 2.6 nM

B8: (Nle)-IC+SRS-((tBu)A)-PPI-(Pen)+IPD-NH2 (peptide)
peptide: [Nle]ICSRS[tBuAla]PPI[Pen]IPD-NH2
modifications: disulfide 3-11; N-terminus assumed
SMILES: CCCC[C@H](N)C(=O)N[C@H](C(=O)N[C@H]1CSSC(C)(C)[C@@H](C(=O)N[C@H](C(=O)N2CCC[C@H]2C(=O)N[C@@H](CC(=O)O)C(N)=O)[C@@H](C)CC)NC(=O)[C@H]([C@@H](C)CC)NC(=O)[C@@H]2CCCN2C(=O)[C@@H]2CCCN2C(=O)[C@H](CC(C)(C)C)NC(=O)[C@H](CO)NC(=O)[C@H](CCCNC(=N)N)NC(=O)[C@H](CO)NC1=O)[C@@H](C)CC
- human MASP2 IC50 [1]: 38 nM
- human MASP1 IC50 [2]: 2.6 nM

B9: ((N-Me)G)-IC+SRS-((tBu)A)-PPI-(Pen)+IP-(PEG5(22 atoms))-NH2 (peptide)
peptide: [Sar]ICSRS[tBuAla]PPI[Pen]IP[PEG6]-NH2
modifications: disulfide 3-11; N-terminus assumed
SMILES: CC[C@H](C)[C@H](NC(=O)CNC)C(=O)N[C@H]1CSSC(C)(C)[C@@H](C(=O)N[C@H](C(=O)N2CCC[C@H]2C(=O)NCCOCCOCCOCCOCCOCCOCCC(N)=O)[C@@H](C)CC)NC(=O)[C@H]([C@@H](C)CC)NC(=O)[C@@H]2CCCN2C(=O)[C@@H]2CCCN2C(=O)[C@H](CC(C)(C)C)NC(=O)[C@H](CO)NC(=O)[C@H](CCCNC(=N)N)NC(=O)[C@H](CO)NC1=O
- human MASP2 IC50 [1]: 48 nM
- human MASP1 IC50 [2]: 2.5 nM

Binder: [Sar]ICSRS[tBuAla]PPI[Pen]IP-{TTDS(3)-NH2} (disulfide 3-11) [((N-Me)G)-IC+SRS-((tBu)A)-PPI-(Pen)+IP-(TTDS)-NH2]
- human MASP2 IC50 [1]: 58 nM
- human MASP1 IC50 [2]: 2.4 nM

B10: (Orn)-IC+SRS-((tBu)A)-PPI-((N-Me)C)+I-NH2 (peptide)
peptide: [Orn]ICSRS[tBuAla]PPI[NMeC]I-NH2
modifications: disulfide 3-11; N-terminus assumed
SMILES: CC[C@H](C)[C@H](NC(=O)[C@@H]1CSSC[C@H](NC(=O)[C@@H](NC(=O)[C@@H](N)CCCN)[C@@H](C)CC)C(=O)N[C@@H](CO)C(=O)N[C@@H](CCCNC(=N)N)C(=O)N[C@@H](CO)C(=O)N[C@@H](CC(C)(C)C)C(=O)N2CCC[C@H]2C(=O)N2CCC[C@H]2C(=O)N[C@@H]([C@@H](C)CC)C(=O)N1C)C(N)=O
- human MASP2 IC50 [1]: 130 nM
- human MASP1 IC50 [2]: 2.6 nM
